{
  "source": "patent US20210163946A1",
  "biological_target": "human C5a receptor (human) (UniProt P21730)",
  "sequence (P21730 whole entry)": "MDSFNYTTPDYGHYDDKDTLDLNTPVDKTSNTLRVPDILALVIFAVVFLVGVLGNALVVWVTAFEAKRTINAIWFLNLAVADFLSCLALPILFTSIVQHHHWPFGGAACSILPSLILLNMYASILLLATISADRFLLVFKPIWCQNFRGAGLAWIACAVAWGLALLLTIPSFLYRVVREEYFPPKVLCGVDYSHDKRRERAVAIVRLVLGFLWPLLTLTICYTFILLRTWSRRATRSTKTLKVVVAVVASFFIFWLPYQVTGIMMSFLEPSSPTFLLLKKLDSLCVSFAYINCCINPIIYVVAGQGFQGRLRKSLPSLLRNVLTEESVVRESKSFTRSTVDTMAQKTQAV",
  "test": "cell-based or functional assay",
  "data": [
    {"substance": "recombinant human C5a (from UniProt P01031 678-751) (ligand)", "values": [
      {"measurement": "half-maximal effective concentration (EC50) of chemotaxis of BA/F3/huC5aR cells", "result": 0.1, "unit": "nM"}
    ]},
    {"substance": "mouse C5a (from UniProt P06684 679-755) (ligand)", "values": [
      {"measurement": "half-maximal effective concentration (EC50) of chemotaxis of BA/F3/huC5aR cells", "result": 0.3, "unit": "nM"}
    ]}
  ]
}
